Results on six molecules are retold here after patent publication US20140275489A1 (Regeneron, published 2014).

The chains are these.
T1: full-length human APLNR (amino acids 1-380 of accession number NP-005152.1) (human, UniProt P35414 1-380)
T1 sequence (looked up): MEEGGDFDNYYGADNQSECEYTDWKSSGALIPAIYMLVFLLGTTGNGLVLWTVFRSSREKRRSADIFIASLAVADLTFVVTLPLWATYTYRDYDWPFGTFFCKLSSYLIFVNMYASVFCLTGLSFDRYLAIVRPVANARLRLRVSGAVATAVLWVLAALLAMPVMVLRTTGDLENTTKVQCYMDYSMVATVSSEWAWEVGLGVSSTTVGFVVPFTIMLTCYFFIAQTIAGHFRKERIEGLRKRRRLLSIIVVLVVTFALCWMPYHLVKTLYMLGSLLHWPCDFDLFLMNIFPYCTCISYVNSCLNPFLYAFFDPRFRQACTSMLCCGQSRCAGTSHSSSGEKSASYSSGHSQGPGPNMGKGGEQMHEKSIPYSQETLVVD

This assay has as its target T1, full-length human APLNR (amino acids …). The experiment in a line: cell-based or functional assay.
Take PRLSHKGPMPF [Apelin-11]: the “EC50 (M), CRE assay (cAMP reporter) in HEK293/CRE-luc/hAPLNR cells” value stood at 4.38e-10 M. The same measure for PRLSHKGPM [Apelin67-75]: 3.74e-07 M; for RPRLSHKGPM [Apelin66-75]: 2.17e-12 M; for PRLSHKGPMP [Apelin67-76]: 1.14e-13 M. Regarding RPRLSHKGPMP [Apelin66-76], the “EC50 (M), CRE assay (cAMP reporter) in HEK293/CRE-luc/hAPLNR cells” value stood at 5.19e-12 M. In the case of QRPRLSHKGPMPFGGGGG [Apelin-13 + 5G] it was 1.47e-10 M.
